Experiments:
Cathepsin G (CatG) [1] = biological target: T1, Cathepsin G (CatG) (Homo sapiens, UniProt P08311 21-244); assay: SP Sepharose chromatography (Kd in figure only); 5 mM Mg2+; SELEX and Kd: 30 mM Tris-HCl pH 7.5, 150 mM NaCl, 5 mM KCl, 5 mM MgCl2, on ice/4 C; SPR: immobilized CatG, HBS-EP pH 7.4 running buffer, oligos in the Tris buffer, 25 C; conditions: protein: native, label: 5' 32P
T1 sequence: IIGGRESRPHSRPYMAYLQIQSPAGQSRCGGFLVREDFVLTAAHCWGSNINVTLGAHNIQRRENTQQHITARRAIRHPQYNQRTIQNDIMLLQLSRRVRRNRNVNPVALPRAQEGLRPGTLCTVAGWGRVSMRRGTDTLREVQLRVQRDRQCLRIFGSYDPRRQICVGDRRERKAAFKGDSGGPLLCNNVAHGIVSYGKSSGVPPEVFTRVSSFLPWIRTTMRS

Cathepsin G (CatG) [2] = biological target: T1, Cathepsin G (CatG); assay: SP Sepharose chromatography; no appreciable affinity; SELEX and Kd: 30 mM Tris-HCl pH 7.5, 150 mM NaCl, 5 mM KCl, 5 mM MgCl2, on ice/4 C; SPR: immobilized CatG, HBS-EP pH 7.4 running buffer, oligos in the Tris buffer, 25 C; conditions: protein: native, label: 5' 32P

B1: cCG51 (ssDNA)
DNA: ACACGAATACCCTCTGTGCTCAGCGTAACACCCAAGCGTATACCCACATATCACACGTTG
binding result (Cathepsin G (CatG) [1]): binds

B2: pE35 (PE35), L-Tyr aptamer (ssDNA)
DNA: AATTCGCTAGCTGGAGCTTGGATTGATGTGGTGTGTGAGTGCGGTGCCCGGATCC
binding result (Cathepsin G (CatG) [2]): no binding

B3: CG51 (ssDNA)
DNA: CAACGTGTGATATGTGGGTATACGCTTGGGTGTTACGCTGAGCACAGAGGGTATTCGTGT
binding result (Cathepsin G (CatG) [1]; predicted fold about -2.52 kcal/mol): binds

GGTTGGTGTGGTTGG (structured_DNA) [THR, thrombin aptamer]
binding result (Cathepsin G (CatG) [2]; G-quartet, intramolecular): no binding

Reference: publication PMC2658781, “Effective DNA Inhibitors of Cathepsin G by In Vitro Selection”
